In PMC7920882:

What was measured:
Experiment in all cases: BLI; reverse outlay: full-length IgG-like constructs (50 ug/mL) loaded on anti-human Fc tips; VEGF in 2-fold dilutions from 500 nM; 25 C, PBS with Kinetic Buffer
[1] = biological target: TRA-CT6 mAb^2
[2] = biological target: TRA-CT6ZW-FT
[3] = biological target: TRA-CT6ZWY
[4] = biological target: TRA-CH3_(ZWHY)/CT6_(ZWLY)
[5] = biological target: TRA-CT6_(ZWHY)/CH3_(ZWLY)

VEGF isomer 109 with N75Q mutation (ligand)
Kd [1]: 2.78 nM | Kd [2]: 1.48 nM | Kd [3]: 16.6 nM | Kd [4]: 6.2 nM | Kd [5]: 16.7 nM
